{"source": "the supplement of paper PMC12042874", "note": "± gives the uncertainty stated by the source.", "data": [{"assay": "amyloid nucleation score (Sup35N fusion, yeast selection) (log enrichment); library NNK1; higher = more nucleation; inactive = no reads after selection", "in_short": "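Nucleation score: DiMSum log enrichment of output over input reads, centred on the mode score of non-aggregating sequences. Only sequences with at least 100 input reads were kept. Reads came from Illumina sequencing of plasmid inserts before and after 7 days of growth at 30°C without adenine and uracil, in psi-negative yeast expressing Sup35N fused to peptides of 20 random codons after 24 hours of induction with 100 μM copper sulfate.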", "values": [{"substance": "VNVTCMFWD", "amyloid nucleation score": "4.05 ± 0.058"}, {"substance": "VNYISHTQMKTR", "amyloid nucleation score": "0.913 ± 0.41"}, {"substance": "VNYPEDPTSKEIIRHSLGTG", "amyloid nucleation score": "-1.13 ± 2.4"}, {"substance": "VPAVSCMVFTAQFDSGVYSC", "amyloid nucleation score": "-0.03 ± 0.73"}, {"substance": "VPFLYVG", "amyloid nucleation score": "-0.792 ± 0.62"}, {"substance": "VPFSGSDNGGTYDCLDWNEG", "amyloid nucleation score": "-0.299 ± 0.63"}, {"substance": "VPIFVNKFVDYTSLSCMHCL", "amyloid nucleation score": "7.379 ± 0.06"}, {"substance": "VPIVGDLEKVMGCYSYWANK", "amyloid nucleation score": "-0.011 ± 0.18"}, {"substance": "VPSFITYLVVDLWDALQGYH", "amyloid nucleation score": "0.409 ± 0.42"}, {"substance": "VPVGRWRSWICVRIRL", "amyloid nucleation score": "0.831 ± 0.65"}, {"substance": "VPVWFSTSISQWSNLQ", "amyloid nucleation score": "-1.09 ± 2.4"}, {"substance": "VPWFLHELQTVLAKVNRGQR", "amyloid nucleation score": "-0.165 ± 0.33"}, {"substance": "VQEFYDLKEYWS", "amyloid nucleation score": "-0.265 ± 0.35"}, {"substance": "VQFGQIIEWVFHMLVSTTTI", "amyloid nucleation score": "-0.022 ± 0.36"}, {"substance": "VQKKRLDGLVKRGLYIRAIG", "amyloid nucleation score": "1.2 ± 0.69"}, {"substance": "VQNGGSLTMPRALLANTWMS", "amyloid nucleation score": "-0.671 ± 0.42"}, {"substance": "VRAELVTVGCLRRATYYRPK", "amyloid nucleation score": "-0.319 ± 1.2"}, {"substance": "VRAEVGQDRVGRM", "amyloid nucleation score": "0.09 ± 0.44"}, {"substance": "VRAFGYDGLHLVITCYHCRH", "amyloid nucleation score": "0.726 ± 0.77"}, {"substance": "VRCNC", "amyloid nucleation score": "0.261 ± 0.5"}, {"substance": "VRDSVTLFPK", "amyloid nucleation score": "-0.277 ± 0.77"}, {"substance": "VRFIFSRSIGLQ", "amyloid nucleation score": "-0.361 ± 0.42"}, {"substance": "VRFWTLEFSPVRFSS", "amyloid nucleation score": "-1.11 ± 0.86"}, {"substance": "VRGLWFYN", "amyloid nucleation score": "0.088 ± 0.72"}, {"substance": "VRGVARYNRKFGDCFYPTHG", "amyloid nucleation score": "0.065 ± 1.5"}, {"substance": "VRLIRTPSDIGTYIIGCREG", "amyloid nucleation score": "-0.065 ± 0.38"}, {"substance": "VRLKVKCIMIH", "amyloid nucleation score": "0.962 ± 0.72"}, {"substance": "VRLLTFDITSLFRVFYVKHR", "amyloid nucleation score": "0.103 ± 0.67"}, {"substance": "VRLSFPKRLSISSAVCNRGS", "amyloid nucleation score": "0.279 ± 0.62"}, {"substance": "VRMKIGNFSCCRYWKPPLYT", "amyloid nucleation score": "1.29 ± 0.61"}, {"substance": "VRMSFRLVEPY", "amyloid nucleation score": "-0.301 ± 0.81"}, {"substance": "VRNMVFSSGRQLYMWDKLLK", "amyloid nucleation score": "1.82 ± 0.66"}, {"substance": "VRQNNGQMFFYWSWFIGNNP", "amyloid nucleation score": "8.12 ± 0.063"}, {"substance": "VRSDAVKEARISFCLRSKRF", "amyloid nucleation score": "0.423 ± 1.4"}, {"substance": "VRSFDDLRVNVSRSRCAMAQ", "amyloid nucleation score": "-0.906 ± 0.71"}, {"substance": "VRSFLPMYMF", "amyloid nucleation score": "-0.376 ± 1.7"}, {"substance": "VRSGDCYRSNSKSVFVMAIR", "amyloid nucleation score": "0.617 ± 0.49"}, {"substance": "VRSRLLQNLSDIPNQPIRWD", "amyloid nucleation score": "-0.105 ± 0.33"}, {"substance": "VSAVDMMYHLLHRILGIIAC", "amyloid nucleation score": "1.48 ± 0.55"}, {"substance": "VSCCSNLVY", "amyloid nucleation score": "0.144 ± 0.26"}, {"substance": "VSCIV", "amyloid nucleation score": "0.198 ± 0.58"}, {"substance": "VSFSCLMSPE", "amyloid nucleation score": "0.126 ± 0.32"}, {"substance": "VSFYGGFGKK", "amyloid nucleation score": "-0.116 ± 0.64"}, {"substance": "VSITRVGTFIRYLFCIARCW", "amyloid nucleation score": "-0.866 ± 0.9"}, {"substance": "VSKSFVSQARLFYIQGDHCL", "amyloid nucleation score": "1.42 ± 0.73"}, {"substance": "VSMHYYAGTYSLNNSLV", "amyloid nucleation score": "-0.819 ± 1.1"}, {"substance": "VSNSWAWPFRRNCGSECWFT", "amyloid nucleation score": "0.228 ± 0.33"}, {"substance": "VSRTLAWLGMSRLNGSYGVC", "amyloid nucleation score": "-0.197 ± 0.41"}, {"substance": "VSRWHQCADPPRCGHRCIWA", "amyloid nucleation score": "0.299 ± 0.51"}, {"substance": "VSSGHLA", "amyloid nucleation score": "0.032 ± 0.42"}, {"substance": "VSSRITPS", "amyloid nucleation score": "1.11 ± 0.39"}, {"substance": "VSSVGKMPDALRVKAKWIFM", "amyloid nucleation score": "0.141 ± 0.29"}, {"substance": "VSSVGVDMMYLTTRGGCHSI", "amyloid nucleation score": "inactive"}, {"substance": "VSVGVILCSVRNKVNRGMDD", "amyloid nucleation score": "inactive"}, {"substance": "VSVMFYPFVFHWYGCLLTSA", "amyloid nucleation score": "2.96 ± 0.12"}, {"substance": "VSVNTVFH", "amyloid nucleation score": "0.36 ± 0.44"}, {"substance": "VSVTVLGRWR", "amyloid nucleation score": "3.55 ± 0.19"}, {"substance": "VSWYSSVIKL", "amyloid nucleation score": "inactive"}, {"substance": "VTGHV", "amyloid nucleation score": "-0.019 ± 0.49"}, {"substance": "VTGKTLTLIEFFIHSQPLSR", "amyloid nucleation score": "0.217 ± 0.32"}, {"substance": "VTIAHNGNLSCRLYTYVQVR", "amyloid nucleation score": "0.515 ± 0.57"}, {"substance": "VTLKVFCIVEV", "amyloid nucleation score": "0.314 ± 0.44"}, {"substance": "VTMLRSFMHELHSGLKKDLK", "amyloid nucleation score": "2.06 ± 0.11"}, {"substance": "VTMVGRSLKLLMTYETFNTW", "amyloid nucleation score": "-0.21 ± 0.24"}, {"substance": "VTNFNESLGKFSRNTLLRS", "amyloid nucleation score": "-0.713 ± 1.1"}, {"substance": "VTNVSLDCGALCSCELCKKS", "amyloid nucleation score": "7.155 ± 0.063"}, {"substance": "VTRDMCGYLVCFWQYAG", "amyloid nucleation score": "7.728 ± 0.045"}, {"substance": "VTRFSAGTITVLTRDWRANC", "amyloid nucleation score": "-0.486 ± 1.6"}, {"substance": "VTRTSYWGVFWSHSWRTWM", "amyloid nucleation score": "inactive"}, {"substance": "VTSSFWFFNDADSRQ", "amyloid nucleation score": "3.24 ± 0.1"}, {"substance": "VTTRLPIYRVKF", "amyloid nucleation score": "0.228 ± 0.37"}, {"substance": "VVAFYL", "amyloid nucleation score": "1.91 ± 0.37"}, {"substance": "VVDMTVGFENARCGMREVWT", "amyloid nucleation score": "-0.328 ± 1.3"}, {"substance": "VVEARWNKAMHTNFLNVRES", "amyloid nucleation score": "0.601 ± 0.65"}, {"substance": "VVGELLGGTNRFGKRVSSMA", "amyloid nucleation score": "-0.057 ± 0.26"}, {"substance": "VVGRTEEEHLQHPSWCMCAL", "amyloid nucleation score": "0.128 ± 1"}, {"substance": "VVLWLVDFPSPCPELKNLHF", "amyloid nucleation score": "inactive"}, {"substance": "VVRFCYTEEVRVFNQASLRE", "amyloid nucleation score": "0.134 ± 0.5"}, {"substance": "VVSLGNSSDYCHWKLILPTV", "amyloid nucleation score": "0.151 ± 0.4"}, {"substance": "VVSYSHAIVRLVLSCDMGRC", "amyloid nucleation score": "0.441 ± 0.47"}, {"substance": "VVVFSNYNFVGKCIHVNSEL", "amyloid nucleation score": "7.351 ± 0.07"}, {"substance": "VVVSNTLECSTSRVNRKVRT", "amyloid nucleation score": "-0.97 ± 0.72"}, {"substance": "VWGINILMSFPIV", "amyloid nucleation score": "5.674 ± 0.053"}, {"substance": "VWMYMHAFCYSTGRRKAMPG", "amyloid nucleation score": "-1.76 ± 0.77"}, {"substance": "VWRKTLRWPLGPWAGRS", "amyloid nucleation score": "-1.11 ± 0.46"}, {"substance": "VWSAMDKALLDSGDGSPMG", "amyloid nucleation score": "0.138 ± 0.36"}, {"substance": "VWTDGGSYFRDLNRICGV", "amyloid nucleation score": "3.74 ± 0.084"}]}]}
